Measured values reported in paper PMC2876975.

Key:
[1] = biological target: c-Myc–HMPV P, in vitro translated, unlabelled (human metapneumovirus strain TN/96-12); assay: co-IP
[2] = biological target: c-Myc–HMPV N, in vitro translated, unlabelled (human metapneumovirus strain TN/96-12); assay: co-IP

Row | Substance | percent co-immunoprecipitated [1] | percent co-immunoprecipitated [2]
1 | Radiolabelled native HMPV N, in vitro translated (natural protein) | < 1% | –
2 | Radiolabelled native HMPV P, in vitro translated (natural protein) | – | < 1%
